Among the data in US20140348747A1 (published 2014) are Kd values, retold here.

For experiment [1], the target named is T1, wild-type non-luminescent polypeptide (WT fragment of residues 1-156 of NanoLuc).
T1 chain: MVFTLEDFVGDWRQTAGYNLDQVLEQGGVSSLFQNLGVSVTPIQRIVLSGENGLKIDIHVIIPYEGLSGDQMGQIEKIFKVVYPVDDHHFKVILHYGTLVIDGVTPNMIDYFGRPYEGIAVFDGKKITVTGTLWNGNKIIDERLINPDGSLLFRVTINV
The experiment in a line: luminescence complementation; NanoGlo.

The target of experiment [2] is T1, wild-type non-luminescent polypeptide …. The experiment in a line: luminescence complementation; average HeLa, HEK293, CHO lysates.
For another experiment, the target named is T2, NLpoly 11S (12-A51T).
T2 chain: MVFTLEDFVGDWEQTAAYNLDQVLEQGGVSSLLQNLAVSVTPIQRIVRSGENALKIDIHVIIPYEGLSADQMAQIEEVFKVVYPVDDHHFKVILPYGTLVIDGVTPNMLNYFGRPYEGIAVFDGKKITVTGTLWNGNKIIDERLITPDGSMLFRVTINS
Kind of experiment: kinetics (koff/kon).

Experiment [3] has as its target T1, wild-type non-luminescent polypeptide …. Kind of experiment: luminescence complementation; PBS.
For experiment [4] the target is unchanged. Kind of experiment: kinetics (koff/kon).
Another experiment has as its target 5P+VTG. Kind of experiment: luminescence complementation.
A further experiment addresses 5P+V. The experiment in a line: luminescence complementation.
Another experiment has as its target 5P+VT. The experiment in a line: luminescence complementation.
Experiment [5] has as its target T3, NLpoly 5A2 (G15A/G35A/G51A/G67A/G71A).
T3 chain: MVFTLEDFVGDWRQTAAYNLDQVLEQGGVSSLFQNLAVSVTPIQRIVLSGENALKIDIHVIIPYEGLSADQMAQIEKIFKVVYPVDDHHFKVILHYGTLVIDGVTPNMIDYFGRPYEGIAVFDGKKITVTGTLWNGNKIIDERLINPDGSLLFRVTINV
The experiment in a line: luminescence complementation, one-site specific binding; replicate 2.

Experiment [6] has the same target. Kind of experiment: luminescence complementation, one-site specific binding; replicate 1.
The target is the same in experiment [7]. The experiment in a line: luminescence complementation, one-site specific binding; replicate 3.

B1: NLpepWT (peptide)
peptide: GVTGWRLCERILA
A word on the Kd: it is the equilibrium constant for the complex coming apart. In the case of B1, the Kd in [1] came out at 20.6 µM; in experiment [2], 8.35 µM; with NLpoly 11S (12-A51T), 629 µM; in experiment [3], 1.34 µM.

B2: NLpep79 (peptide)
peptide: NVTGYRLFKKISN
For the molecule B2, the Kd was determined as 2.89 µM in experiment [1]; 5.13 µM in experiment [2]; 42 µM with NLpoly 11S (12-A51T); 5580 µM in experiment [4]; 0.487 µM in experiment [3].

B3: NLpep80 (peptide)
peptide: Ac-VSGWRLFKKISN-NH2
As for B3, the Kd with 5P+VTG was 0.0075 µM; in the experiment with 5P+V it was 0.0103 µM; with 5P+VT, 0.0096 µM.

B4: NLpep82 (peptide)
peptide: Ac-GWRLFKKISN-NH2
Regarding B4, the figures for the equilibrium dissociation constant (Kd) with 5P+VTG, with 5P+V and with 5P+VT were 0.273 µM, 0.128 µM and 0.198 µM, respectively.

B5: NLpep81 (peptide)
peptide: Ac-SGWRLFKKISN-NH2
With B5, the equilibrium dissociation constant (Kd) was determined as 0.283 µM with 5P+VTG, 0.15 µM with 5P+V and 0.218 µM with 5P+VT.

B6: NLpep86 (peptide)
peptide: Ac-VSGWRLFKKIS-NH2
Turning to B6, the results for the Kd in [5], in experiment [6] and in experiment [7] were 0.11 µM, 0.0991 µM and 0.0933 µM, respectively.
